The values that follow come from the supplement of paper PMC11246515.

± gives the standard deviation of the averaged measurements.

The series can be described thus: total protein half-life in vivo (active degradation + dilution); higher = more stable protein.
Where [1] appears, read: E. coli NCM3722 delta-clpP delta-lon delta-hslV, growth: N-lim chemostat, doubling time 6 h.
[2] abbreviates: E. coli NCM3722 delta-clpP, growth: N-lim chemostat, doubling time 6 h.
The mark [3] stands for this setting: E. coli NCM3722 delta-hslV, growth: N-lim chemostat, doubling time 6 h.
Setting [4] is: E. coli NCM3722 delta-lon, growth: N-lim chemostat, doubling time 6 h.
The mark [5] stands for this setting: E. coli NCM3722 delta-smpB, growth: N-lim chemostat, doubling time 6 h.
The mark [6] stands for this setting: wild type E. coli NCM3722, growth: C-lim chemostat, doubling time 3 h.
Setting [7] is: wild type E. coli NCM3722, growth: C-lim chemostat, doubling time 6 h.
The mark [8] stands for this setting: wild type E. coli NCM3722, growth: C-lim chemostat, doubling time 12 h.
The mark [9] stands for this setting: wild type E. coli NCM3722, growth: N-lim chemostat, doubling time 6 h.
[10] abbreviates: wild type E. coli NCM3722, growth: N-lim chemostat, doubling time 12 h.
Where [11] appears, read: wild type E. coli NCM3722, growth: P-lim chemostat, doubling time 6 h.
The mark [12] stands for this setting: wild type E. coli NCM3722, growth: P-lim chemostat, doubling time 12 h.

P0ABR5, sequence (chain, as listed by the source): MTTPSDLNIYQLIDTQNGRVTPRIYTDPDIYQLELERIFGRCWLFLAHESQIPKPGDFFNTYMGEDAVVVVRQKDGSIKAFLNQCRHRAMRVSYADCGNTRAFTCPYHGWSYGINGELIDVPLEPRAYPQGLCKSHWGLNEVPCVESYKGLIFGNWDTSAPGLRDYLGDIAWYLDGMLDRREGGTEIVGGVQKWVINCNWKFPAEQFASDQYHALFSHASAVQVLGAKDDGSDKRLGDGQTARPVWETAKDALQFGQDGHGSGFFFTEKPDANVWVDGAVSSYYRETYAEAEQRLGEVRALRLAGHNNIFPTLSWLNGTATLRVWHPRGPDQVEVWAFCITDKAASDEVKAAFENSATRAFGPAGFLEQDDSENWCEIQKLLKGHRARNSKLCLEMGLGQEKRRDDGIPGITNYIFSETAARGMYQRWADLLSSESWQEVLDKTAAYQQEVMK

Take “MTTQTVSGRRYFTKAWLMEQKSLIALLVLIAIVSTLSPNFFTINNLFNILQQTSVNAIMAVGMTLVILTSGIDLSVGSLLALTGAVAASIVGIEVNALVAVAAALALGAAIGAVTGVIVAKGRVQAFIATLVMMLLLRGVTMVYTNGSPVNTGFTENADLFGWFGIGRPLGVPTPVWIMGIVFLAAWYMLHHTRLGRYIYALGGNEAATRLSGINVNKIKIIVYSLCGLLASLAGIIEVARLSSAQPTAGTGYELDAIAAVVLGGTSLAGGKGRIVGTLIGALILGFLNNGLNLLGVSSYYQMIVKAVVILLAVLVDNKKQ [P0AGI1]”: the “total protein half-life in vivo” value stood at 6.66 ± 0.66 h under setting [1]; 6.38 ± 1.3 h under setting [2]; 5.86 ± 0.5 h under setting [3]; 5.86 ± 0.38 h under setting [4]; 6.072 ± 0.021 h under setting [5]; 2.957 ± 0.015 h under setting [6]. In addition, the “total protein half-life in vivo” value under setting [7] amounted to 5.74 ± 0.19 h; the “total protein half-life in vivo” value under setting [8] worked out at 12.5 ± 2.2 h; the “total protein half-life in vivo” value under setting [9] is 6.28 ± 0.51 h; the “total protein half-life in vivo” value under setting [10] worked out at 10.5 ± 3.5 h; the “total protein half-life in vivo” value under setting [11] came to 5.48 ± 0.19 h; the “total protein half-life in vivo” value under setting [12] was determined as 13.2 ± 1.3 h.
In the case of “MARKTKQEAQETRQHILDVALRLFSQQGVSSTSLGEIAKAAGVTRGAIYWHFKDKSDLFSEIWELSESNIGELELEYQAKFPGDPLSVLREILIHVLESTVTEERRRLLMEIIFHKCEFVGEMAVVQQAQRNLCLESYDRIEQTLKHCIEAKMLPADLMTRRAAIIMRGYISGLMENWLFAPQSFDLKKEARDYVAILLEMYLLCPTLRNPATNE [P0ACS9]”, the “total protein half-life in vivo” value under setting [1] came to 5.34 ± 0.52 h; the “total protein half-life in vivo” value under setting [3] worked out at 6.2 h; the “total protein half-life in vivo” value under setting [4] stood at 5.24 h; the “total protein half-life in vivo” value under setting [5] amounted to 5.82 ± 1.9 h; the “total protein half-life in vivo” value under setting [7] turned out to be 5.61 h; the “total protein half-life in vivo” value under setting [8] worked out at 10.8 ± 0.63 h. The “total protein half-life in vivo” value runs as follows: under setting [9], 5.74 h; under setting [10], 11.6 h; under setting [11], 4.88 h; under setting [12], 7.48 h.
For “MGLMNAFDSQTEDSSPAIGRNLRSRPLARKKLSEMVEEELEQMIRRREFGEGEQLPSERELMAFFNVGRPSVREALAALKRKGLVQINNGERARVSRPSADTIIGELSGMAKDFLSHPGGIAHFEQLRLFFESSLVRYAAEHATDEQIDLLAKALEINSQSLDNNAAFIRSDVDFHRVLAEIPGNPIFMAIHVALLDWLIAARPTVTDQALHEHNNVSYQQHIAIVDAIRRHDPDEADRALQSHLNSVSATWHAFGQTTNKKK [P0A8W0]”, the “total protein half-life in vivo” value was 5.49 ± 0.12 h under setting [1]; 5.05 ± 0.14 h under setting [2]; 3.63 ± 0.045 h under setting [3]; 4.53 ± 0.93 h under setting [4]; 3.48 ± 0.66 h under setting [5]; 2.383 ± 0.0064 h under setting [6]. Besides, the “total protein half-life in vivo” value runs as follows: under setting [7], 4.17 ± 0.12 h; under setting [8], 6.39 ± 0.4 h; under setting [9], 3.95 ± 0.16 h; under setting [10], 5.27 ± 0.066 h; under setting [11], 3.59 ± 0.14 h; under setting [12], 6.29 ± 0.19 h.
Turning to “MNEFPVVLVINCGSSSIKFSVLDASDCEVLMSGIADGINSENAFLSVNGGEPAPLAHHSYEGALKAIAFELEKRNLNDSVALIGHRIAHGGSIFTESAIITDEVIDNIRRVSPLAPLHNYANLSGIESAQQLFPGVTQVAVFDTSFHQTMAPEAYLYGLPWKYYEELGVRRYGFHGTSHRYVSQRAHSLLNLAEDDSGLVVAHLGNGASICAVRNGQSVDTSMGMTPLEGLMMGTRSGDVDFGAMSWVASQTNQSLGDLERVVNKESGLLGISGLSSDLRVLEKAWHEGHERAQLAIKTFVHRIARHIAGHAASLRRLDGIIFTGGIGENSSLIRRLVMEHLAVLGLEIDTEMNNRSNSCGERIVSSENARVICAVIPTNEEKMIALDAIHLGKVNAPAEFA”, the “total protein half-life in vivo” value under setting [1] is 3.9 h.
As to “MLEQMGIAAKQASYKLAQLSSREKNRVLEKIADELEAQSEIILNANAQDVADARANGLSEAMLDRLALTPARLKGIADDVRQVCNLADPVGQVIDGGVLDSGLRLERRRVPLGVIGVIYEARPNVTVDVASLCLKTGNAVILRGGKETCRTNAATVAVIQDALKSCGLPAGAVQAIDNPDRALVSEMLRMDKYIDMLIPRGGAGLHKLCREQSTIPVITGGIGVCHIYVDESVEIAEALKVIVNAKTQRPSTCNTVETLLVNKNIADSFLPALSKQMAESGVTLHADAAALAQLQAGPAKVVAVKAEEYDDEFLSLDLNVKIVSDLDDAIAHIREHGTQHSDAILTRDMRNAQRFVNEVDSSAVYVNASTRFTDGGQFGLGAEVAVSTQKLHARGPMGLEALTTYKWIGIGDYTIRA”, the “total protein half-life in vivo” value is, setting by setting: under setting [1], 5.127 ± 0.031 h; under setting [2], 4.65 ± 0.2 h; under setting [3], 4.64 ± 0.14 h; under setting [4], 4.75 ± 0.29 h; under setting [5], 4.5 ± 0.067 h; under setting [6], 3.12 ± 0.3 h. Also, the “total protein half-life in vivo” value came to 5.68 ± 0.2 h under setting [7]; 10.9 ± 0.47 h under setting [8]; 4.65 ± 0.12 h under setting [9]; 7.82 ± 0.18 h under setting [10]; 5.31 ± 0.65 h under setting [11]; 12.15 ± 0.096 h under setting [12].
On to “MEQSVANLVDMRDVSFTRGNRCIFDNISLTVPRGKITAIMGPSGIGKTTLLRLIGGQIAPDHGEILFDGENIPAMSRSRLYTVRKRMSMLFQSGALFTDMNVFDNVAYPLREHTQLPAPLLHSTVMMKLEAVGLRGAAKLMPSELSGGMARRAALARAIALEPDLIMFDEPFVGQDPITMGVLVKLISELNSALGVTCVVVSHDVPEVLSIADHAWILADKKIVAHGSAQALQANPDPRVRQFLDGIADGPVPFRYPAGDYHADLLPGS”, for which the “total protein half-life in vivo” value reads like this: under setting [1], 6.3 ± 0.54 h; under setting [2], 6.19 ± 0.062 h; under setting [5], 5.79 ± 0.68 h; under setting [6], 3.08 ± 0.07 h; under setting [7], 7.05 ± 1.1 h; under setting [8], 12.3 ± 2 h. In addition, the “total protein half-life in vivo” value by setting is: under setting [9], 6.18 ± 0.23 h; under setting [10], above 16 h; under setting [11], 7.04 ± 0.68 h; under setting [12], 14.1 ± 0.78 h.
Regarding “MNHSLKPWNTFGIDHNAQHIVCAEDEQQLLNAWQYATAEGQPVLILGEGSNVLFLEDYRGTVIINRIKGIEIHDEPDAWYLHVGAGENWHRLVKYTLQEGMPGLENLALIPGCVGSSPIQNIGAYGVELQRVCAYVDSVELATGKQVRLTAKECRFGYRDSIFKHEYQDRFAIVAVGLRLPKEWQPVLTYGDLTRLDPTTVTPQQVFNAVCHMRTTKLPDPKVNGNAGSFFKNPVVSAETAKALLSQFPTAPNYPQADGSVKLAAGWLIDQCQLKGMQIGGAAVHRQQALVLINEDNAKSEDVVQLAHHVRQKVGEKFNVWLEPEVRFIGASGEVSAVETIS”, the “total protein half-life in vivo” value worked out at 4.93 ± 1.3 h under setting [1]; 3.45 ± 0.048 h under setting [2]; 3.8 ± 0.13 h under setting [3]; 3.89 ± 0.49 h under setting [4]; 3.52 ± 0.22 h under setting [5]; 2.93 ± 0.053 h under setting [6]. For the same substance, the “total protein half-life in vivo” value was determined as 4.83 ± 0.63 h under setting [7]; 9.87 ± 0.28 h under setting [8]; 3.66 ± 0.11 h under setting [9]; 5.41 ± 0.096 h under setting [10]; 4.81 ± 0.36 h under setting [11]; 8.99 ± 0.82 h under setting [12].
On to “MSIKLIAVDMDGTFLSDQKTYNRERFMAQYQQMKAQGIRFVVASGNQYYQLISFFPEIANEIAFVAENGGWVVSEGKDVFNGELSKDAFATVVEHLLTRPEVEIIACGKNSAYTLKKYDDAMKTVAEMYYHRLEYVDNFDNLEDIFFKFGLNLSDELIPQVQKALHEAIGDIMVSVHTGNGSIDLIIPGVHKANGLRQLQKLWGIDDSEVVVFGDGGNDIEMLRQAGFSFAMENAGSAVVAAAKYRAGSNNREGVLDVIDKVLKHEAPFDQ”, for which the “total protein half-life in vivo” value under setting [1] amounted to 4.81 ± 0.67 h; the “total protein half-life in vivo” value under setting [2] is 2.026 ± 0.013 h; the “total protein half-life in vivo” value under setting [3] worked out at 1.78 ± 0.4 h; the “total protein half-life in vivo” value under setting [4] came out at 2.53 ± 0.083 h; the “total protein half-life in vivo” value under setting [5] worked out at 1.92 ± 0.13 h; the “total protein half-life in vivo” value under setting [6] is 2.44 ± 0.25 h. The “total protein half-life in vivo” value turned out to be 3.96 ± 0.16 h under setting [7]; 6.88 ± 0.18 h under setting [8]; 2.08 ± 0.059 h under setting [9]; 2.73 ± 0.66 h under setting [10]; 2.7 ± 0.7 h under setting [11]; 7.59 ± 3.2 h under setting [12].
Take P0ABR5: the “total protein half-life in vivo” value runs as follows: under setting [1], 6.36 ± 1.3 h; under setting [6], 1.02 h; under setting [7], 2.09 h; under setting [8], 3.87 ± 2.6 h; under setting [11], 1.661 ± 0.003 h; under setting [12], 2.48 ± 0.059 h.
With “MSLVCSVIFIHHAFNANILDKDYAFSDGEILMVDNAVRTHFEPYERHFKEIGFTENTIKKYLQCTNIQTVTVPVPAKFLRASNVPTGLLNEMIAYLNSEERNHHNFSELLLFSCLSIFAACKGFITLLTNGVLSVSGKVRNIVNMKPAHPWKLKDICDCLYISESLLKKKLKQEQTTFSQILLDARMQHAKNLIRVEGSVNKIAEQCGYASTSYFIYAFRKHFGNSPKRVSKEYRCQSHTGMNTGNTMNALAI”, the “total protein half-life in vivo” value under setting [1] is 4.92 h.
